Laboratory results published in the supplement of paper PMC12042874.
± gives the uncertainty stated by the source.

assay: amyloid nucleation score (Sup35N fusion, yeast selection) (log enrichment); library NNK3; higher = more nucleation; inactive = no reads after selection
Method in brief: (§1)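 Nucleation score: DiMSum log enrichment of output over input reads, centred on the mode score of non-aggregating sequences. Only sequences with at least 100 input reads were kept. Reads came from Illumina sequencing of plasmid inserts before and after 7 days of growth at 30°C without adenine and uracil, in psi-negative yeast expressing Sup35N fused to peptides of 20 random codons after 24 hours of induction with 100 μM copper sulfate.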

| Substance | amyloid nucleation score |
| --- | --- |
| YRLQLPYSVNEAVFLLVGSK | inactive |
| YKIYIFFGTVYMGVDRDQIG | 2.89 ± 0.063 |
| IPFFIGCHNKCRVYLWVAVG | inactive |
| SFRGTSARYFMLVGVLGIFV | -0.2 ± 1.2 |
| NRPSMSRGVDTRLMSLHETL | inactive |
| NFITRWCGFSGSA | 0.608 ± 0.2 |
| WRFRIVR | inactive |
| VTGDWTGYMPLCLISVAFLS | 1.5 ± 0.083 |
| QSSLLSTVNGVFKSDTRVRV | inactive |
| RIRALLD | inactive |
| LSKPFPSMHFSRRWNRNGLW | inactive |
| HYKKYITPVQRVGCADPSHC | inactive |
| RSPEDFSGTCHAGRCSWVHG | -0.044 ± 0.39 |
| DFAVGLLVHWHNPHYNTELQ | 1.25 ± 0.13 |
| RNNSNEKSFLRQSYYHCDCF | 2.73 ± 0.07 |
| WGMSRLFVYFPVILLMISLT | inactive |
| MRTNTPIFLVLGKIS | inactive |
| FEWFQCIYA | inactive |
| RFIEKTSKIMSPDAYPSLKY | inactive |
| KGSFFLDCFGARRRIGLVKF | inactive |
| NKNSVFSLSYPYYVTCVGTY | inactive |
| MFLQSGDFPM | inactive |
| VLLIWIIVPTWF | 0.5 ± 0.14 |
| RKWSNR | inactive |
| NFFMGLLSSRSMGLTWYWCM | inactive |

| Substance | amyloid nucleation score |
| --- | --- |
| NVALRAGSREG | inactive |
| DSICYHAFYMEEGGS | inactive |
| PFMCGRAIRLSFREFTRLKN | inactive |
| YSDFAWDPRSKNKYGWHPRL | inactive |
| SKIFVNIDYVKVFRMICEWR | inactive |
| CAISLVRLTVQSEEIRVDRN | inactive |
| KSMSLKTFCGWGETQYVFFV | inactive |
| MVLKLNESSMIFKDTTYP | inactive |
| IPGAVISEYYKSYRSSTIPP | inactive |
| EDQLL | -0.077 ± 0.54 |
| NMQGLRFSRKCCEHRGFYIC | inactive |
| SNFFRYIFYTRSQFSFQLIN | inactive |
| IENQSRCLLTNVATVN | inactive |
| RMTVKQMLYHDWCTVRPSYC | inactive |
| WVFLNRAQQHSNVLPSQGLV | inactive |
| STVNVCYVSMGNWERLTDVR | 0.446 ± 0.26 |
| SRWTEACI | inactive |
| CIRVTMSNMMVESWVYGDKP | 0.586 ± 0.15 |
| SKIVNHFNDHYHFEITCQYQ | 2.88 ± 0.057 |
| RWSRGMVSNCRENATWYDAA | inactive |
| QAYAS | -0.099 ± 0.96 |
| RWTNNRSEIGAPYGWPTAS | inactive |
| APVKLAGLHTSVRARGIGYW | -0.192 ± 1.3 |
| TAFYSRYFWVNLICRRPSFK | inactive |
| SMINKRR | 1.16 ± 0.15 |

| Substance | amyloid nucleation score |
| --- | --- |
| SRVTSIWRGYNFINIKRGDL | -0.42 ± 1.3 |
| SSSATGPAYGNKQATFRRLV | -0.457 ± 0.9 |
| YVFLRVEILEKLQQV | -0.522 ± 0.84 |
| YFRFRSFLVLSDM | inactive |
| YFYWTCSDKRVTIEDVVPLH | inactive |
| AICSPTLLDYYFLFKVLPGS | inactive |
| STRMRYICCSCLL | 2.99 ± 0.078 |
| TGKLNNFFNTFRYFYLLADY | inactive |
| VFLCMGTYDTCFL | 0.638 ± 0.16 |
| YYSKPPCVLTDVGLIWLRPY | inactive |
| KVMTDIPDV | inactive |
| RRMPLWEVGFSQASLTRQ | inactive |
| NWSSH | inactive |
| HDDISISESIFRRLQIRVIL | inactive |
| APLMTYMVMTFMWDSKELPD | inactive |
| KFGDPIRFWVTYYTNRSWSG | -0.732 ± 1.4 |
| SYNCA | inactive |
| RHWDVLK | inactive |
| MKGQLARSSDLSRLDVNCMG | inactive |
| QHWWSYWMFSGKRQCVVFPV | inactive |
| SLIQY | inactive |
| TNTFQSRNMFVNTALIYSP | inactive |
| DNICIYWALDGIYECSRHSR | inactive |
| SGEYSQRKGSCKGHNGSSRS | inactive |
| VSFQD | inactive |

| Substance | amyloid nucleation score |
| --- | --- |
| ASFKFGG | inactive |
| RNMEPDASVATV | inactive |
| LIICLYSTAGRGIRWSDSTA | inactive |
| PTAFCNSSQYV | inactive |
| MAHAFDTR | inactive |
| DPFVRDIWQREYQWES | inactive |
| CMMWNRGFT | inactive |
| AIVESKPYLRSVL | inactive |
| WTRHGSEFVCYNSGHLWVFD | 0.164 ± 0.31 |
| QMRTWSKIYICTKPFL | 1.07 ± 0.1 |
| RTWSAKGYDNIRDVGLNSES | inactive |
| EASLSGGYTEYVGDFMRLVT | inactive |
| VCVTSSSMCNFDGLVVTRVV | inactive |
| FDLRSWCM | inactive |
| PSGVTSCLKEWDSRDHGHRH | inactive |
| LYLVKVD | inactive |
| QGSLVKFS | inactive |
| IFCGPCLSSYRPKWTGMTSY | 2.12 ± 0.06 |
| MPMGGRYSAKAIVLVQKKDW | inactive |
| EGFIVSRISAGDRSGDMEGC | inactive |
| YSTMRS | inactive |
| EWPVNTNVYFCFMYTANFNT | 2.63 ± 0.055 |
| CLYVSLS | inactive |
| YFVLFVRQCVKLVMRFGSED | inactive |
| RGIDYSHTL | inactive |

| Substance | amyloid nucleation score |
| --- | --- |
| CVPNWVVCRLSIYKF | inactive |
| SSPCSVMVKVGSDHFERVAI | inactive |
| HNPVG | 1.23 ± 0.08 |
| RSIHYSYWCIYGNIRDTVRS | inactive |
| CLFRYSEYSVGKLMGYCDCG | inactive |
| SLYFDT | inactive |
| VFAARAKRY | inactive |
| RGQFICRCGVARPV | inactive |
| KFNGCR | inactive |
| FLLMLFVSGVRLFDYRRFWH | inactive |
| DGVLSVGSLCNDRFVLEMYG | -0.432 ± 1 |
| LREHWEELVLGFWFPKVCCF | inactive |
| FWNEVMNRLPGLL | inactive |
| CWTTINVSGCPNVGGGTVLQ | 0.9 ± 0.17 |
| YVRLWVEDWETFSKMGSQIL | inactive |
| ALLYRERKYSMLVKFVVYRS | inactive |
| PESGAPNPSGYCLAHH | inactive |
| RGVIPLNSKCKL | inactive |
| LEYCVNL | inactive |
| TARDESSGV | inactive |
| STNSRFFSAYCSVVGMRRHA | inactive |
| ACTLDTLFSFVPSHNWSGQK | inactive |
| FFFTEFFELHIWTKSLPFTS | inactive |
| GAVWFIRRRPKDRIRRVSLW | inactive |
| GMQAGTGSKCCGRTGQI | inactive |

| Substance | amyloid nucleation score |
| --- | --- |
| WCCHRAFLYI | inactive |
| MHLEYGVFIDARATYML | 1.49 ± 0.12 |
| AKTSADYTYVASRTDFGCVN | inactive |
| DNCLNCNRCKCIYKDFWLSA | inactive |
| SWSRYNDC | inactive |
| YVDTAHHGSFENLECVEGLC | inactive |
| FPWYAIFSHSMLCVDIQDF | 0.958 ± 0.2 |
| LVSLWLDRD | inactive |
| RPRNLSLASYTDSVMRFGLS | inactive |
| LKCSR | inactive |
| CNPLFTYNKPSVDKSV | inactive |
| FKMPTIRLVLK | inactive |
| YIFEPV | 0.318 ± 0.77 |
| EYHKMTGIFAPLFILIMVV | inactive |
| TFSVRLSYLSRNAICDERVL | 0.33 ± 0.46 |
| ASGDLAGSKLVSYRVATLIN | inactive |
| RLLDGMTSVLC | inactive |
| YHLFLDVVFFHSTKDESRKN | 0.187 ± 0.6 |
| TFLRQGMNSDISYLVRFGGN | -0.057 ± 0.47 |
| ADNRHIFFIGFQRVLSFSWA | 1.25 ± 0.1 |
| NIMVDHS | -0.476 ± 1.4 |
| SFKSTSYIITFNWKIVAVWK | inactive |
| LSLVCNCRSTCNCPGLSL | inactive |
| GNNRGTVSWVERGAWALTKA | inactive |
| GYRKMVTLYVDDGNHVYRFL | inactive |

assay: amyloid nucleation score (Sup35N fusion, yeast selection) (log enrichment); library NNK2; higher = more nucleation; inactive = no reads after selection
Method in brief: as §1

| Substance | amyloid nucleation score |
| --- | --- |
| KWFNVCIWKCAWLYIDGVGC | 3.95 ± 0.066 |
| PIMCKGNLTDFTFYCFCKFD | 6.6 ± 0.067 |
| YLGGMGSICDVNPCLYNRFL | 0.655 ± 0.16 |
| YNLNCHLFSAWTFNYKIAFL | 5.958 ± 0.043 |
| LTSMEARLQMKVRDGFQNGE | 0.437 ± 0.49 |
| WFHVITFFLGASCIMWTKTR | inactive |
| SVGIVSSDRCLCLMSM | 1.3 ± 0.39 |
| ELVVHFFLFIMGACLHVENQ | -0.368 ± 1 |
| SSNSANVILASYEDYRRVNP | -0.526 ± 0.79 |
| PCSGSLPRTKTD | -0.167 ± 0.32 |
